From article PMC5209733, “U24 from Roseolovirus interacts strongly with Nedd4 WW Domains” (Scientific Reports, 2017)
Non-standard residues stand in square brackets, D forms with d. No end group written: not given here. pT = C[C@@H](OP(=O)(O)O)[C@H](N)C(=O)O

T1: U24-6A protein (recombinant full length U24 from HHV-6A) (Human Herpes Virus type 6A (HHV-6A), UniProt Q69559 1-87)
T1 construct: U24 protein of Human Herpes Virus type 6A (HHV-6A), full length
T1 sequence: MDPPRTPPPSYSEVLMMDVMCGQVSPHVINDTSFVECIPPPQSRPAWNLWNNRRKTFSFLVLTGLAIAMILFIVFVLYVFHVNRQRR

B1: GST-rNedd4-WW3/4 (third WW domain of rat Nedd4 fused to the C-terminus of GST) (domain or fragment)
chain: PVDSNDLGPLPPGWEERTHTDGRVFFINHNIKKTQWEDPRMQNVAITG
notes: Nedd4 E3 ubiquitin ligase, rat, third WW domain (WW3/4, homologue of the fourth WW domain in human); Plasmid was a gift from J. D. Forman-Kay; source: E. coli BL21(DE3), purified (Glutathione Sepharose 4B, eluted with glutathione); not shown: GST, N-terminal, kept
B2: pU24-6A peptide (15-mer, N-terminus of U24 from HHV-6A phosphorylated at Thr6) (peptide)
peptide: MDPPR[pT]PPPSYSEVL
notes: U24 protein of Human Herpes Virus type 6A (HHV-6A), 15-mer of the N-terminus with phospho-threonine at Thr6; source: purified peptide
B3: U24-6A peptide (15-mer, N-terminus of U24 from HHV-6A) (peptide)
peptide: MDPPRTPPPSYSEVL
notes: U24 protein of Human Herpes Virus type 6A (HHV-6A), first 15 residues; source: purified peptide
B4: GST-hNedd4L-WW3* (third WW domain of human Nedd4-like protein fused to the C-terminus of GST) (domain or fragment)
chain: QSFLPPGWEMRIAPNGRPFFIDHNTKTTTWEDPRLKFPVHMRSK
notes: Nedd4-like protein (Nedd4L), human, cDNA clone KIAA0439, third WW domain (WW3*); Cloned into BamHI and XhoI sites of pGEX-4T2; source: E. coli BL21(DE3), purified (Glutathione Sepharose 4B, eluted with glutathione); not shown: GST, N-terminal, kept

Experiments:
[1] = biological target: T1, U24-6A protein (recombinant full length …); assay: pull-down; GST-Nedd4 WW domain (1 to 2 nmole) immobilised on 20 uL Glutathione Sepharose 4B resin, incubated 1 hour at 4 °C with U24 protein in pull down buffer (20 mM KH2PO4, 75 mM NaCl, 0.5% Triton X-100, pH 7.4; 1 mM DTT for U24-7); SDS-PAGE, silver stain; details: both partners purified
[2] = biological target: T2, rNedd4-WW3/4 domain (third WW domain of rat Nedd4, GST tag removed) (rat, UniProt Q62940 452-499); assay: ITC; peptide titrated into the cleaved WW domain (40 to 150 uM) in the cell; 10 mM sodium phosphate, pH 7.4, 25 °C; MicroCal VP-ITC; bimolecular interaction model; three runs (further runs with 100 mM and 500 mM NaCl told in words only); details: both partners purified
T2 construct: Nedd4 E3 ubiquitin ligase, rat, third WW domain (WW3/4, homologue of the fourth WW domain in human); Thrombin cleavage may leave vector residues at the N-terminus (surmised); source: E. coli BL21(DE3), purified (Glutathione Sepharose 4B, thrombin cleavage on the resin); 15N-labelled in M9 medium for NMR; not shown: GST, N-terminal, cleaved

Row | Binder | binding result [1] | Kd [2] | dH [2]
1 | B1 | binds |  | 
2 | B2 |  | 13.5 µM | -12.9 kcal/mol
3 | B3 |  | 43 µM | -11 kcal/mol
4 | B4 | binds |  | 
